± gives the standard error.
B1: library; numbered along this chain (parent)
chain: MATDAALRRLLRLHRTEIAVAVDSAFPLLHALADHDVVPEDKFQETLHLKEKEGCPQAFHALLSWLLTQDSTAILDFWRVLFKDYNLERYGRLQPILDSFPKDVDLSQPRKGRKPPAVPKALVPPPRLPTKRKASEEARAAAPAALTPRGTASPGSQLKAKPPKKPESSAEQQRLPLGNGIQTMSASVQRAVAMSSGDVPGARGAVEGILIQQVFESGGSKKCIQVGGEFYTPSKFEDSGSGKNKARSSSGPKPLVRAKGAQGAAPGGGEARLGQQGSVPAPLALPSDPQLHQKNEDECAVCRDGGELICCDGCPRAFHLACLSPPLREIPSGTWRCSSCLQATVQEVQPRAEEPRPQEPPVETPLPPGLRSAGEEVRGPPGEPLAGMDTTLVYKHLPAPPSAAPLPGLDSSALHPLLCVGPEGQQNLAPGARCGVCGDGTDVLRCTHCAAAFHWRCHFPAGTSRPGTGLRCRSCSGDVTPAPVEGVLAPSPARLAPGPAKDDTASHEPALHRDDLESLLSEHTFDGILQWAIQSMARPAAPFPS

Variants of: B1
Experiment: AIRE transcriptional activation functional score (insulin promoter-GFP; nonsense median 0, synonymous median 1) (normalised score); higher = higher AIRE activity (more reporter activation)
Conditions: with insulin promoter-GFP reporter in HEK293
Method: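 Deep mutational scan of full-length human AIRE (codon-optimized cDNA, DT-POPCode NNN libraries over three regions) integrated at a Bxb1 landing pad in HEK293 cells carrying an insulin core promoter-GFP reporter at a Flp-In site. Cells were sorted for the top 10% GFP about 14 days after transfection. Variant frequency log-ratios (select vs non-select, TileSeq) were rescaled so that the nonsense median is 0 and the synonymous median is 1, then averaged over biological replicates.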

| Variant | AIRE transcriptional activation functional score |
| --- | --- |
| W455H | 0.823 ± 0.085 |
| S464V | 0.722 ± 0.23 |
| I74R | -0.00714 ± 0.54 |
| I74D | 0.058 ± 0.41 |
| A264K | 0.671 ± 0.041 |
| P119H | 1.17 ± 0.41 |
| I533Q | 0.144 ± 0.029 |
| R113S | 1.02 ± 0.33 |
| G268K | 0.831 ± 0.27 |
| E207I | 0.19 ± 0.4 |
| G421Y | -0.246 ± 0.36 |
| V118M | 1.31 ± 0.18 |
| L285Y | 0.979 ± 0.08 |
| L285D | 1.56 ± 0.21 |
| G251E | 1.44 ± 0.14 |
| P109F | 1.16 ± 0.068 |
| L444K | 0.847 ± 0.12 |
| L444D | 1.55 ± 0.075 |
| A6D | 1.01 ± 1.3 |
| T68L | 0.729 ± 0.36 |
| T68D | -0.277 ± 0.067 |
| I18F | 0.0176 ± 0.2 |
| P154D | 0.0296 ± 0.054 |
| P154E | 0.475 ± 0.28 |

| Variant | AIRE transcriptional activation functional score |
| --- | --- |
| D198G | 1.08 ± 0.24 |
| E353I | 1.13 ± 0.076 |
| Q349G | 1.14 ± 0.19 |
| T232Y | 0.775 ± 0.18 |
| A186E | 0.734 ± 0.25 |
| P282R | 0.839 ± 0.35 |
| D439K | 0.809 ± 0.15 |
| L10Y | 1.01 ± 0.24 |
| L488M | 0.976 ± 0.11 |
| G486V | 1.45 ± 0.5 |
| I528W | 1 ± 0.065 |
| I528C | 0.179 ± 0.17 |
| R79I | 0.217 ± 0.23 |
| A121H | 0.141 ± 0.31 |
| P286W | 1.61 ± 0.054 |
| P400W | 1.89 ± 0.07 |
| V188Q | 0.798 ± 0.092 |
| P280D | 0.642 ± 0.23 |
| A170Y | 2.08 ± 0.5 |
| I309T | 0.922 ± 0.32 |
| R456S | 0.726 ± 0.18 |
| L210I | 0.93 ± 0.09 |
| L210S | 0.327 ± 0.13 |
| A138K | 0.889 ± 0.063 |

| Variant | AIRE transcriptional activation functional score |
| --- | --- |
| E376I | 1.36 ± 0.14 |
| S241T | 1.11 ± 0.25 |
| L470F | 0.971 ± 0.13 |
| G112C | 0.924 ± 0.17 |
| G112S | 0.851 ± 0.57 |
| G112T | 1.31 ± 0.75 |
| G462V | 1.03 ± 0.18 |
| Q213S | 0.639 ± 0.2 |
| Q213R | 0.637 ± 0.33 |
| K159T | 1.05 ± 0.27 |
| A489L | 1.06 ± 0.14 |
| A152R | 0.913 ± 0.49 |
| S250R | 0.0524 ± 0.41 |
| G260N | 1.12 ± 0.21 |
| E363Y | 1.28 ± 0.093 |
| P368K | 1.38 ± 0.13 |
| R92Q | 0.461 ± 0.085 |
| N179A | 1.53 ± 0.52 |
| Q173L | 1.52 ± 0.42 |
| L397S | 0.938 ± 0.3 |
| L397D | 0.808 ± 0.1 |
| A404H | 1.66 ± 0.044 |
| R336N | 1.03 ± 0.2 |
| F77A | 0.257 ± 0.36 |

| Variant | AIRE transcriptional activation functional score |
| --- | --- |
| F77I | 0.0486 ± 0.17 |
| P233D | 0.675 ± 0.056 |
| E298K | 1.07 ± 0.1 |
| A134D | 0.263 ± 0.28 |
| D84R | 0.794 ± 0.32 |
| S476A | 0.905 ± 0.28 |
| G91K | -0.415 ± 1.5 |
| D389I | -0.197 ± 0.2 |
| L7A | -0.112 ± 0.16 |
| L7Q | 0.381 ± 0.63 |
| L87N | 0.531 ± 0.19 |
| R139V | 0.965 ± 0.42 |
| R89G | 0.255 ± 0.42 |
| H292A | 0.816 ± 0.34 |
| P398Q | 1.31 ± 0.16 |
| R538W | 1.54 ± 0.038 |
| R328T | 0.764 ± 0.2 |
| R328F | 0.907 ± 0.48 |
| V345Q | 0.581 ± 0.12 |
| V345W | 1.52 ± 0.023 |
| V279L | 1 ± 0.24 |
| L128W | 1.39 ± 0.091 |
| L97P | 0.384 ± 0.59 |
| L97M | 0.762 ± 0.19 |

| Variant | AIRE transcriptional activation functional score |
| --- | --- |
| I224V | 0.58 ± 0.23 |
| I224A | 0.495 ± 0.12 |
| A399L | -0.706 ± 0.96 |
| H30F | 0.0787 ± 0.23 |
| E485P | 1.25 ± 0.21 |
| D304C | 1.29 ± 0.03 |
| S545C | 1.3 ± 0.047 |
| Q290Y | 1.48 ± 0.15 |
| G208L | 0.332 ± 0.35 |
| G208R | 0.0966 ± 0.19 |
| G208E | 0.502 ± 0.1 |
| G208T | 0.433 ± 0.44 |
| Q172L | 1.55 ± 0.33 |
| K83L | 0.753 ± 0.27 |
| L28Y | -0.212 ± 0.28 |
| P325D | 0.208 ± 0.6 |
| T46F | -1.2 ± 0.75 |
| L158E | 0.986 ± 0.54 |
| P124L | 1.09 ± 0.26 |
| A451P | 0.142 ± 0.14 |
| A261Q | 1.17 ± 0.33 |
| E51V | 0.0642 ± 0.14 |
| E51D | 0.852 ± 0.23 |
| E51H | 0.0447 ± 0.07 |

| Variant | AIRE transcriptional activation functional score |
| --- | --- |
| E51Q | 0.593 ± 0.1 |
| P350A | 1.13 ± 0.18 |
| L122K | 0.401 ± 0.17 |
| L122Q | 0.272 ± 0.36 |
| T391P | 0.882 ± 0.38 |
| S412R | 1.07 ± 0.29 |
| S412E | 0.743 ± 0.087 |
| A432D | 0.806 ± 0.097 |
| A432Y | 1.28 ± 0.27 |
| P483K | 0.675 ± 0.19 |
| M388L | 1.17 ± 0.24 |
| Q94P | 0.0425 ± 0.51 |
| G431I | 1.32 ± 0.11 |
| H319L | 0.424 ± 0.099 |
| G498R | 0.839 ± 0.17 |
| G498T | 1.09 ± 0.36 |
| P326C | 1.19 ± 0.15 |
| V256R | 0.207 ± 0.45 |
| G274H | 1.4 ± 0.14 |
| C340V | 1.42 ± 0.083 |
| L520D | 0.849 ± 0.094 |
| E522T | -0.656 ± 0.48 |
| S153Y | 0.691 ± 0.65 |
| A246H | 1.42 ± 0.31 |

| Variant | AIRE transcriptional activation functional score |
| --- | --- |
| Q426D | 0.796 ± 0.2 |
| Q426N | 1.23 ± 0.043 |
| Q426Y | 1.54 ± 0.11 |
| E237A | 1.08 ± 0.18 |
| G204D | 0.621 ± 0.36 |
| G204T | 1 ± 0.53 |
| E375I | 1.08 ± 0.42 |
| C446E | -1.3 ± 0.16 |
| V479E | 1.39 ± 0.038 |
| S287G | 1.22 ± 0.13 |
| P95T | 1.34 ± 0.46 |
| A265R | 0.748 ± 0.39 |
| A265T | 1.01 ± 0.34 |
| T463R | 0.998 ± 0.24 |
| L417Y | 1.21 ± 0.098 |
| V123G | 1.3 ± 0.27 |
| A271R | 0.714 ± 0.37 |
| G469D | 0.77 ± 0.46 |
| G469F | 1.42 ± 0.095 |
| L327R | 1.05 ± 0.31 |
| L32N | -0.605 ± 0.18 |
| S411M | 1.37 ± 0.03 |
| S220P | -0.127 ± 0.15 |

— the supplement of paper PMC12667976
